Measurements reported in paper PMC9482650, “Quantitative fragmentomics allow affinity mapping of interactomes” (Nature Communications, 2022).

B1: EGLN1, Q9GZT9 (peptide)
chain: PSDSVGKDVF
B2: NRXN3, Q9HDB5 (peptide)
chain: QKNKDREYYV

molecular target: SCRIB_3, Q14160; test: holdup assay; design: key: below the threshold = too weak to quantify, mostly under pKd 3.1 to 4; conditions: plain residues with an end cap or a label only (N-terminal biotin on a linker: ado-ado)
Sequence (Q14160 999-1103): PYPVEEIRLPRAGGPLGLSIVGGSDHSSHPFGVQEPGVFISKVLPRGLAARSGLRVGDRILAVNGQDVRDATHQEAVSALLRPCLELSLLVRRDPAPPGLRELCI

Binder	pKd
B1	below the threshold
B2	below the threshold

molecular target: T1, APBA3_1, O96018; test: holdup assay; design: key: below the threshold = too weak to quantify, mostly under pKd 3.1 to 4; conditions: plain residues with an end cap or a label only (N-terminal biotin on a linker: ado-ado)
T1 sequence (O96018 389-490, limits assumed, looked up): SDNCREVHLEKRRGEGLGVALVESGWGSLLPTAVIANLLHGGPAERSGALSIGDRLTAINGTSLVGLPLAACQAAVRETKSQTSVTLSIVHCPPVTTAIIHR

Binder	pKd
B1	below the threshold
B2	below the threshold

molecular target: GRIP2_4, Q9C0E4; test: holdup assay; design: key: below the threshold = too weak to quantify, mostly under pKd 3.1 to 4; conditions: plain residues with an end cap or a label only (N-terminal biotin on a linker: ado-ado)
Sequence (Q9C0E4 446-548): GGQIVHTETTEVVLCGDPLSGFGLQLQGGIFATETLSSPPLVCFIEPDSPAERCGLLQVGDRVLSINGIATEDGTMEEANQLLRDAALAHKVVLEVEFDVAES

Binder	pKd
B1	below the threshold
B2	below the threshold

molecular target: PDZRN4_1, Q6ZMN7; test: holdup assay; design: key: below the threshold = too weak to quantify, mostly under pKd 3.1 to 4; conditions: plain residues with an end cap or a label only (N-terminal biotin on a linker: ado-ado)
Sequence (Q6ZMN7 213-318): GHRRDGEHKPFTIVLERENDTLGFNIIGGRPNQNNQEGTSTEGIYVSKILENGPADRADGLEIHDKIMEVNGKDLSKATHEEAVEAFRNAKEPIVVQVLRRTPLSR

Binder	pKd
B1	below the threshold
B2	below the threshold

molecular target: PICK1, Q9NRD5; test: holdup assay; design: key: below the threshold = too weak to quantify, mostly under pKd 3.1 to 4; conditions: plain residues with an end cap or a label only (N-terminal biotin on a linker: ado-ado)
Sequence (Q9NRD5 17-115): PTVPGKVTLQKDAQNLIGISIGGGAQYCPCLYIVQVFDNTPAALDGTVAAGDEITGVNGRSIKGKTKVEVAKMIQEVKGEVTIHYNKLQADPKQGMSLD

Binder	pKd
B1	below the threshold
B2	below the threshold

molecular target: LNX1_3, Q8TBB1; test: holdup assay; design: key: below the threshold = too weak to quantify, mostly under pKd 3.1 to 4; conditions: plain residues with an end cap or a label only (N-terminal biotin on a linker: ado-ado)
Sequence (Q8TBB1 500-596): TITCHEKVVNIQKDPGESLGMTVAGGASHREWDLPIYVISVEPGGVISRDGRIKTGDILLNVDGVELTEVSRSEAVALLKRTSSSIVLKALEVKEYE

Binder	pKd
B1	below the threshold
B2	4.09

molecular target: LNX1_1, Q8TBB1; test: holdup assay; design: key: below the threshold = too weak to quantify, mostly under pKd 3.1 to 4; conditions: plain residues with an end cap or a label only (N-terminal biotin on a linker: ado-ado)
Sequence (Q8TBB1 261-371): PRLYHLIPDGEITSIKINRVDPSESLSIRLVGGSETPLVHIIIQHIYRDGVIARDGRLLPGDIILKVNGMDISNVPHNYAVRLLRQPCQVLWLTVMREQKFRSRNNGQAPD

Binder	pKd
B1	below the threshold
B2	3.65

molecular target: Inadl_1, Q8NI35; test: holdup assay; design: key: below the threshold = too weak to quantify, mostly under pKd 3.1 to 4; conditions: plain residues with an end cap or a label only (N-terminal biotin on a linker: ado-ado)
Sequence (Q8NI35 113-229): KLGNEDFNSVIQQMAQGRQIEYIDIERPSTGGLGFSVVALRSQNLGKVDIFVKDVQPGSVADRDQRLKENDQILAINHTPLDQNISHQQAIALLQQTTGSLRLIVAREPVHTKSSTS

Binder	pKd
B1	below the threshold
B2	3.69

molecular target: GIPC2, Q8TF65; test: holdup assay; design: key: below the threshold = too weak to quantify, mostly under pKd 3.1 to 4; conditions: plain residues with an end cap or a label only (N-terminal biotin on a linker: ado-ado)
Sequence (Q8TF65 112-203): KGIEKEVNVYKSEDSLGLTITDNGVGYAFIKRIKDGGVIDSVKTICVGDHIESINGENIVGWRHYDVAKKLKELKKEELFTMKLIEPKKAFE

Binder	pKd
B1	below the threshold
B2	3.52

molecular target: DLG5_1, Q8TDM6; test: holdup assay; design: key: below the threshold = too weak to quantify, mostly under pKd 3.1 to 4; conditions: plain residues with an end cap or a label only (N-terminal biotin on a linker: ado-ado)
Sequence (Q8TDM6 617-713): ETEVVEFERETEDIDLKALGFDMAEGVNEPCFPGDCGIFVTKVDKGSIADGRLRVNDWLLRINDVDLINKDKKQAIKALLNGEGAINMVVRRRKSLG

Binder	pKd
B1	below the threshold
B2	below the threshold

molecular target: IL16_4, Q14005; test: holdup assay; design: key: below the threshold = too weak to quantify, mostly under pKd 3.1 to 4; conditions: plain residues with an end cap or a label only (N-terminal biotin on a linker: ado-ado)
Sequence (Q14005 1229-1329): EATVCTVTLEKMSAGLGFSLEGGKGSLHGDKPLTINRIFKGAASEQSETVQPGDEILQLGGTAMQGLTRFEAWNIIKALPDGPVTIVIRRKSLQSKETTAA

Binder	pKd
B1	3.63
B2	below the threshold

molecular target: MAGI1_2, Q96QZ7; test: holdup assay; design: key: below the threshold = too weak to quantify, mostly under pKd 3.1 to 4; conditions: plain residues with an end cap or a label only (N-terminal biotin on a linker: ado-ado)
Sequence (Q96QZ7 456-580): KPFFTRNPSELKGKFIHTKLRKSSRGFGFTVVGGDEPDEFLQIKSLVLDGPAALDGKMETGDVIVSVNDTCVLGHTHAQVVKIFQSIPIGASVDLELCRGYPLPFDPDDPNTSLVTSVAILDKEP

Binder	pKd
B1	below the threshold
B2	below the threshold

molecular target: T2, RADIL, Q96JH8; test: holdup assay; design: key: below the threshold = too weak to quantify, mostly under pKd 3.1 to 4; conditions: plain residues with an end cap or a label only (N-terminal biotin on a linker: ado-ado)
T2 sequence (Q96JH8 971-1071, limits assumed, looked up): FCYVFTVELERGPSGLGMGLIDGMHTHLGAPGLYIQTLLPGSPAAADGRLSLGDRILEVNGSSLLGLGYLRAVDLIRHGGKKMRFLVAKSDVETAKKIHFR

Binder	pKd
B1	below the threshold
B2	4.7

molecular target: SNX27, Q96L92; test: holdup assay; design: key: below the threshold = too weak to quantify, mostly under pKd 3.1 to 4; conditions: plain residues with an end cap or a label only (N-terminal biotin on a linker: ado-ado)

Binder	pKd
B1	below the threshold
B2	3.64

molecular target: T3, GRIP1_3, Q9Y3R0; test: holdup assay; design: key: below the threshold = too weak to quantify, mostly under pKd 3.1 to 4; conditions: plain residues with an end cap or a label only (N-terminal biotin on a linker: ado-ado)
T3 sequence (Q9Y3R0 247-346, limits assumed, looked up): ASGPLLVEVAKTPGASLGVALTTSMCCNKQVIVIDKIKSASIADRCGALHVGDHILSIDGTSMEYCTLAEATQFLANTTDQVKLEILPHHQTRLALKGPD

Binder	pKd
B1	below the threshold
B2	below the threshold

molecular target: T4, PDZRN3_1, Q9UPQ7; test: holdup assay; design: key: below the threshold = too weak to quantify, mostly under pKd 3.1 to 4; conditions: plain residues with an end cap or a label only (N-terminal biotin on a linker: ado-ado)
T4 sequence (Q9UPQ7 244-349, limits assumed, looked up): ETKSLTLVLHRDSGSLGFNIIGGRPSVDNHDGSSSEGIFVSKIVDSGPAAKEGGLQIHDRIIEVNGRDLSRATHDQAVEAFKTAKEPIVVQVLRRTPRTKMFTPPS

Binder	pKd
B1	below the threshold
B2	below the threshold

molecular target: MAGI2_6, Q86UL8; test: holdup assay; design: key: below the threshold = too weak to quantify, mostly under pKd 3.1 to 4; conditions: plain residues with an end cap or a label only (N-terminal biotin on a linker: ado-ado)
Sequence (Q86UL8 1141-1229): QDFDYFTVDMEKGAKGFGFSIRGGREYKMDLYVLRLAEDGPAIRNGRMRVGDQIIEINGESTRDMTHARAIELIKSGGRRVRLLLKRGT

Binder	pKd
B1	below the threshold
B2	below the threshold

molecular target: T5, SNTB1, Q13884; test: holdup assay; design: key: below the threshold = too weak to quantify, mostly under pKd 3.1 to 4; conditions: plain residues with an end cap or a label only (N-terminal biotin on a linker: ado-ado)
T5 sequence (Q13884 107-205, limits assumed, looked up): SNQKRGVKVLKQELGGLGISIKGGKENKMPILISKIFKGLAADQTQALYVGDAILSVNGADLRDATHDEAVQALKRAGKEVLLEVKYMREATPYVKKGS

Binder	pKd
B1	below the threshold
B2	3.65

molecular target: DLG4_3, P78352; test: holdup assay; design: key: below the threshold = too weak to quantify, mostly under pKd 3.1 to 4; conditions: plain residues with an end cap or a label only (N-terminal biotin on a linker: ado-ado)
Sequence (P78352 306-403): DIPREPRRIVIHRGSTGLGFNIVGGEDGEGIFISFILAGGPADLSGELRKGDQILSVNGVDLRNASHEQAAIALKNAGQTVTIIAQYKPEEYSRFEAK

Binder	pKd
B1	below the threshold
B2	below the threshold

molecular target: LNX1_2, Q8TBB1; test: holdup assay; design: key: below the threshold = too weak to quantify, mostly under pKd 3.1 to 4; conditions: plain residues with an end cap or a label only (N-terminal biotin on a linker: ado-ado)
Sequence (Q8TBB1 371-470): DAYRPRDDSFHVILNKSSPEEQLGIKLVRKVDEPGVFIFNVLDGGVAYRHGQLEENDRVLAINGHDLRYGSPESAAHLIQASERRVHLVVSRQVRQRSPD

Binder	pKd
B1	below the threshold
B2	4.08

molecular target: MAGI1_1, Q96QZ7; test: holdup assay; design: key: below the threshold = too weak to quantify, mostly under pKd 3.1 to 4; conditions: plain residues with an end cap or a label only (N-terminal biotin on a linker: ado-ado)
Sequence (Q96QZ7 1-106): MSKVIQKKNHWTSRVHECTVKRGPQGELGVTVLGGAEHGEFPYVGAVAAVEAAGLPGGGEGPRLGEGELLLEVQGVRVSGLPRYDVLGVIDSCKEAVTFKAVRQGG

Binder	pKd
B1	below the threshold
B2	below the threshold

molecular target: Inadl_6, Q8NI35; test: holdup assay; design: key: below the threshold = too weak to quantify, mostly under pKd 3.1 to 4; conditions: plain residues with an end cap or a label only (N-terminal biotin on a linker: ado-ado)
Sequence (Q8NI35 1058-1167): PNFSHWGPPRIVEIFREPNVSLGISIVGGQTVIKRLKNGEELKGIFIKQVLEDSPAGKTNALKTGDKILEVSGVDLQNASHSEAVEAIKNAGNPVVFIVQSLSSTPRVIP

Binder	pKd
B1	below the threshold
B2	below the threshold

molecular target: T6, TX1BP3, O14907; test: holdup assay; design: key: below the threshold = too weak to quantify, mostly under pKd 3.1 to 4; conditions: plain residues with an end cap or a label only (N-terminal biotin on a linker: ado-ado)
T6 sequence (O14907 10-122, limits assumed, looked up): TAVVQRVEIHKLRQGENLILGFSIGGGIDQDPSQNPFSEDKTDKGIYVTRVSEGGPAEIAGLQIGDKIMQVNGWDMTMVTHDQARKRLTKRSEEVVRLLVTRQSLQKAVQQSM

Binder	pKd
B1	below the threshold
B2	below the threshold

molecular target: T7, GRIP1_5, Q9Y3R0; test: holdup assay; design: key: below the threshold = too weak to quantify, mostly under pKd 3.1 to 4; conditions: plain residues with an end cap or a label only (N-terminal biotin on a linker: ado-ado)
T7 sequence (Q9Y3R0 568-668, limits assumed, looked up): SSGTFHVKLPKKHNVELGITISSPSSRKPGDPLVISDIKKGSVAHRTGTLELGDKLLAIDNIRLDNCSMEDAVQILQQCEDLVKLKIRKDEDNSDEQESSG

Binder	pKd
B1	below the threshold
B2	below the threshold

molecular target: GORASP1, Q9BQQ3; test: holdup assay; design: key: below the threshold = too weak to quantify, mostly under pKd 3.1 to 4; conditions: plain residues with an end cap or a label only (N-terminal biotin on a linker: ado-ado)
Sequence (Q9BQQ3 1-208): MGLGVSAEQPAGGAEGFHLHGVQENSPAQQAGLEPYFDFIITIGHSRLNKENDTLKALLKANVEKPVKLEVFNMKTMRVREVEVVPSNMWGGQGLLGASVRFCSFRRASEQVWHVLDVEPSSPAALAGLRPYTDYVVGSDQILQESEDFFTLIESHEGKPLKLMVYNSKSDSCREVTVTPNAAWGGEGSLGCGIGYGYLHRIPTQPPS

Binder	pKd
B1	below the threshold
B2	4.33

molecular target: T8, DFNB31_1, Q9P202; test: holdup assay; design: key: below the threshold = too weak to quantify, mostly under pKd 3.1 to 4; conditions: plain residues with an end cap or a label only (N-terminal biotin on a linker: ado-ado)
T8 sequence (Q9P202 135-233, limits assumed, looked up): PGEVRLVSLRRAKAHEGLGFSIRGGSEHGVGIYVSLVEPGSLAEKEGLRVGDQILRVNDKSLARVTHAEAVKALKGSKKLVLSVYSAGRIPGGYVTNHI

Binder	pKd
B1	3.49
B2	below the threshold

molecular target: FRMPD4, Q14CM0; test: holdup assay; design: key: below the threshold = too weak to quantify, mostly under pKd 3.1 to 4; conditions: plain residues with an end cap or a label only (N-terminal biotin on a linker: ado-ado)
Sequence (Q14CM0 67-160): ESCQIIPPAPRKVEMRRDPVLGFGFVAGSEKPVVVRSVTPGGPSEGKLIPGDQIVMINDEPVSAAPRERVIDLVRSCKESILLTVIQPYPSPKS

Binder	pKd
B1	below the threshold
B2	4.4

molecular target: MAGI2_5, Q86UL8; test: holdup assay; design: key: below the threshold = too weak to quantify, mostly under pKd 3.1 to 4; conditions: plain residues with an end cap or a label only (N-terminal biotin on a linker: ado-ado)
Sequence (Q86UL8 915-1017): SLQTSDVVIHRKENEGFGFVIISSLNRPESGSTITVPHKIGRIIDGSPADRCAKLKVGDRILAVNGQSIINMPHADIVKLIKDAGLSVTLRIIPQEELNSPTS

Binder	pKd
B1	below the threshold
B2	below the threshold

molecular target: GRIP2_7, Q9C0E4; test: holdup assay; design: key: below the threshold = too weak to quantify, mostly under pKd 3.1 to 4; conditions: plain residues with an end cap or a label only (N-terminal biotin on a linker: ado-ado)
Sequence (Q9C0E4 934-1023): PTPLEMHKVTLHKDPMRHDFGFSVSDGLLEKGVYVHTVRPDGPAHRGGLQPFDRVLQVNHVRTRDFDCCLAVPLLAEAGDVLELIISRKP

Binder	pKd
B1	below the threshold
B2	4.89
